Assay results reported in patent publication US20240084004A1 (INTERVET, published 2024).

T1: HIS-tagged extracellular domain of canine PD-1
T1 construct: also called canine PD-1 ECD-8HIS; PD-1ECD-HIS
T1 chain: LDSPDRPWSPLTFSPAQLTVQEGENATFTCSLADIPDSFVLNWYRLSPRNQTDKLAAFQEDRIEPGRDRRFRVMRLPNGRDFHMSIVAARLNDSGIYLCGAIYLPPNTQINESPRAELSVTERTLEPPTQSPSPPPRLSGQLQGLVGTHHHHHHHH

T2: canine PD-1 expressed on CHO cells (canine)
T2 construct: CHO DXB11 cells transfected with plasmid p96793; also called cPD-1 CHO cells; CHO cell line expressing canine PD-1
T2 chain: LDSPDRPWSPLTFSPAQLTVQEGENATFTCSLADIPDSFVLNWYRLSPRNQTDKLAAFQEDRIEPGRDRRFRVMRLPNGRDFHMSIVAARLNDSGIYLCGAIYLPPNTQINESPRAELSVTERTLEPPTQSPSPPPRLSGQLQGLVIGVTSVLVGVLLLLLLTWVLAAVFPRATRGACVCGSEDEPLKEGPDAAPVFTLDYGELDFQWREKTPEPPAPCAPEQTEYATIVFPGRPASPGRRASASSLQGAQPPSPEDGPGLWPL

T3: canine PD-1 antigen peptide GRDRRFRVM*RLPNGR (SEQ ID NO: 84) (canine)
T3 construct: The starred methionine has also been reported as a threonine
T3 peptide: GRDRRFRVMRLPNGR


Assays:
[1] = molecular target: T1, HIS-tagged extracellular domain of …; experiment: ELISA on plate-coated HIS-tagged canine PD-1 ECD, two-fold dilutions of mAb, HRP goat anti-mouse IgG, TMB
Description: Purified anti-canine PD-1 mAbs were tested for reactivity with the HIS-tagged ECD domain of canine PD-1 by ELISA as follows: HIS-tagged canine PD-1 ECD protein is diluted to 10 μg/mL in coating buffer (Carbonate/Bicarbonate pH 9.0) and dispensed at 100 μl/well in 96-well flat bottomed ELISA plates (NUNC). The plates are incubated at 4° C. overnight. The plates are then washed three times with phosphate buffered saline containing 0.05% Tween-20 (PBST). Next, 200 μl of blocking buffer (5% skim milk in PBST) is added to each well and the plates are incubated at 37° C. for 60 minutes. The plates are then washed three times with PBST. Next, 100 μl of test mAbs diluted in blocking buffer is added to the first wells of the appropriate columns. Test mAbs are then diluted two-fold to the appropriate plate position. Following incubation of the plates at 37° C. for 60 minutes, the plates are washed three times with PBST. Next, 100 μl per well of a 1:2,000 dilution of a horseradish peroxidase conjugated goat anti-mouse IgG (KPL) is added to the plates, which are then incubated at 37° C. for 60 minutes. Then the plates are washed three times with PBST, and 100 μl/well of 3,3′,5,5′ tetramethyl benzidine, (TMB) substrate (from KPL) is added to the plates. The color reaction is allowed to develop for 5-20 minutes at 37° C. prior to measuring absorbance at 650 nm.

[2] = molecular target: T2, canine PD-1 expressed on CHO cells; experiment: ligand blockade CELISA: mAb diluted from 54.8 µg/mL on CHO cells expressing canine PD-1, then cPD-L1-Fc-biotin, streptavidin-HRP; the signal is bound PD-L1
Description: (§1) A cell-based ELISA (CELISA) assay based on the CHO cell line expressing canine PD-1 was used for mouse mAbs which react with canine PD-1 (cPD-1). Ligand blockade was confirmed using this assay in conjunction with biotinylated cPD-L1/Fc protein. Briefly, seed cPD-1 CHO cells were placed in 96-well plates at 4×10⁴ cells per well and the cells were incubated at 37° C. for 18-24 hours till they are 95-100% confluent. The cell culture media was aspirated off, and the plates were washed 3× with PBS+0.05% Tween20 and 1×CHO media. Three-fold serial dilutions were made of anti-cPD1 mAbs in CHO media, starting at 30 μg/mL, and 50 μL/well of each antibody dilution were added down the plate. The incubation was performed at 37° C., 5% CO₂ with shaking for 30 min. 50 μL/well of cPD-L1-Fc-biotin (2 μg/ml in CHO media stock) was added and the incubation at 37° C., 5% CO₂ was continued with shaking for 45 min. The plates were washed 6 times with PBS+0.05% Tween 20. 100 ul/well of Streptavidin-HRP (1:2000) in CHO media was added followed by a incubation for 30-60 min at 37° C./5% CO₂. The plates were washed 5 times with PBS+0.05% Tween20 and then 100 μl/well of TMB color developing substrate was added. The color development was stopped by adding 50 μl/well of 1M phosphoric acid. The optical density (O.D.) at A450-A620 was measured using an ELISA plate reader.

[3] = molecular target: T3, canine PD-1 antigen peptide …; experiment: ProImmune ProArray Ultra peptide microarray, fluorescent secondary antibody
Description: This library of overlapping peptides was designed to cover the full length canine PD-1 protein. The determination of peptide-antibody binding was performed by attachment of antibody samples to the ProArray Ultra® peptide microarray, followed by incubation with a fluorescent-labelled secondary antibody. All peptides are synthesized separately, and then bound to the ProArray Ultra® slide surface alongside ProImmune® murine IgG controls. This optimized process ensures that peptides are presented on the array in such a manner as to closely mimic the properties of the corresponding protein region, circumventing the inherent physiochemical variation of the free peptides themselves and making a compatible, combined peptide and protein array platform. […] After several washing steps, the ProArray Ultra® arrays were dried and scanned using a high-resolution fluorescence microarray scanning system. After scanning the fluorescent labelled ProArray Ultra® slides, the scanner recorded an image which was evaluated using image analysis software—enabling interpretation and quantification of the levels of fluorescent intensities associated with each fluorescent spot on the scanned microarray slide. The results of this experiment indicated some of the canine PD-1 peptides were recognized by some of the mAbs evaluated.

[4] = molecular target: T2, canine PD-1 expressed on CHO cells; experiment: ligand blockade CELISA: mAb diluted from 23.2 µg/mL on CHO cells expressing canine PD-1, then cPD-L1-Fc-biotin, streptavidin-HRP; the signal is bound PD-L1
Description: as §1

[5] = molecular target: T2, canine PD-1 expressed on CHO cells; experiment: CELISA on CHO cells expressing canine PD-1, mAb diluted from 30 ug/mL (x axis: log of dilution), HRP goat anti-mouse, TMB
[6] = molecular target: T2, canine PD-1 expressed on CHO cells; experiment: ligand blockade CELISA: mAb diluted from 30 ug/mL on CHO cells expressing canine PD-1, then cPD-L1-Fc-biotin, streptavidin-HRP; the signal is bound PD-L1
Description: as §1

Binder | binding result [1] | binding result [5] | other results
5G5 (antibody, V domains shown, Mouse anti-canine PD-1 mAb; also called mAb 5G5; copies: 2 + 2) VH: EVQLQQSVAELVRPGASVKLSCTVSGFNIKNTYMHWVKQRPEQGLEWIGRIDPANVNTKYAPKFQGKATITTDTSSNTAYMQLSSLTSEDTAIYYCVLIFYDYDGDIDVWGTGTKVTVSS VL: DIQMNQSPSSLSASLGDTITITCHASQNINVWLSWYQQKPGNIPKLLIYKASNLHTGVPSRFSGSGSGTDFTLTISSLQPEDIATYYCQQGQSYPLTFGAGTKLELK | binds | – | –
Murine 2H9 (mouse anti-canine PD-1 monoclonal antibody) (antibody, V domains shown, Mouse hybridoma mAb purified on Protein G; also called mAb 2H9) VH: EVQLQQSVAELVRPGASVKLSCTASGFNIKNTYMHWIKQRPEQGLEWIGRIAPANVDTKYAPKFQGKATITADTSSNTAYMQLSTLTSEDTAIYYCVLIYYDYDGDIDVWGTGTTVTVSS VL: DIQMNQSPSSLSASLGDTITITCHASQNINVWLSWYQQRPGNIPKLLIYKASHLHTGVPSRFSGSGSGTGFTLTISSLQPEDIATYYCQQGQSWPLTFGAGTKLELK | binds | – | binding result [3]: binds; binding result [4]: binds
mAb 1B5 (mouse anti-canine PD-1 monoclonal antibody) (antibody, V domains shown, Mouse mAb; also called IBS) VH: QIQLVQSGPELKKPGETVKISCKASGYTFTTYGMSWVKQAPGKGLKWMGWINIYSGIPTYADDFKGRFAFSLETSASTAYLQIDNLKNEDTATYFCARFDGPDYWGQGTTLTVSP VL: DIVMTQSPSSLAMSVGQKVTMSCKSSQSLLNSVNQKNYLAWYQQKPGQSPKVLVYFASTRVSGVPDRFIGSGSGTDFTLTITSVQAEDLTTYLCQQYFSTPLTFGAGTKLEIK | – | binds | –

Now from value to binder, other results behind:

binding result [1] | binding result [5] | Binder | other results
binds | – | mAb 2G9 (mouse anti-canine PD-1 monoclonal antibody) (antibody, V domains shown, Mouse hybridoma mAb) VH: QAYLQQSGAELVRPGASVKISCKASGYTFTRYNMHWVKQTPRQGLEWIGTIYPGYGDTSYNQKFKGKATLTVDISSSTAYMQLTSLTSEDSAVYFCSREFADDYPIPPFDYWGQGTTLTVSS VL: DVLMTQTPLSLPVSLGDQASISCRSSQNIVHSNGNTYLEWYLQKPGQSPKLLIYKVSNRFSGVPDRFSGSGSGTDFTLKISRVEAEDLGIYYCFQGSHVPYTFGGGTKLEIK | binding result [2]: binds
binds | binds | Murine 3B6 (mouse anti-canine PD-1 monoclonal antibody) (antibody, V domains shown, Mouse hybridoma mAb; also called mAb 3B6) VH: QIQLVQSGPELKKPGETVKISCKASGYTFTTYGMSWVKQAPGKGLKWMGWINIYSGIPTYADDFKGRFAFSLETSASTAYLQIDNLKNEDTATYFCARFDGPDYWGQGTTLTVSS VL: DIVMTQSPSSLAVSVGRKVTMSCKSSQSLLNSVNQKNYLAWYQQKPGQSPKVLVYFASARVSGVPDRFIGSGSGTDFTLAISSVQAEDLTTYFCQQYFSTPLTFGAGTKLELK | –
binds | – | 4D12 (antibody, V domains shown, Mouse anti-canine PD-1 mAb; also called mAb 4D12; copies: 2 + 2) VH: QIQLVQSGPELKKPGETVKISCKASGYTFTTYGMSWVKQAPGKGLKWMGWINIYSGMPTYADDFKGRFAFSLETSVSTAYLQINNLKNEDTATYFCARFDGPDYWGQGTTLTVSS VL: not shown | binding result [6]: binds
